Experimental data taken from article doi:10.1101/2023.02.13.528223.

Target: DNMT3A^R736S (human) (UniProt Q9Y6K1)
Assay: SEC + other: negative-stain EM

With “DNMT3A^R736S (from UniProt Q9Y6K1 1-912) (enzyme)” as the substance, how does the stoichiometry N read?
Its stoichiometry N is 2.
